The values that follow come from paper PMC2933939 (Bioorganic & medicinal chemistry, 2010).

The target in the experiment is Heat shock protein 90 (Hsp90), purified, native (UniProt P07900 1-732). Nature of the experiment: pull-down.

As for FLVLL (head-to-tail cyclised macrocycle (cyclic pentapeptide)) [Sansalvamide A-amide (San A-amide), compound 1, macrocycle Phe-Leu-Val-Leu-Leu], the half-inhibitory concentration (IC50) (as a rule, the concentration that gives 50% inhibition) stood at 19.7 µM. This lies in the double-digit micromolar range.
